Target: acetylcholinesterase (AChE) (UniProt O42275 24-633)
Assay: single-molecule nanopore; 100 pM lambda DNA carrier also carrying TBA probe and thrombin, 100 mM KCl; Nanopore: 100 mM KCl Tris-EDTA, pH 8, 45 min incubation; EMSA thrombin: 140 mM NaCl, 20 mM MgCl2, 20 mM PBS pH 7.4, 45 min; EMSA AChE: 2.7 mM KCl, 4 mM MgCl2, PBS pH 7.4, 1 h; temperature not stated
Conditions: protein: commercial; chain copies: 4; free oligo in EMSA

Sequence of acetylcholinesterase (AChE) (O42275 24-633): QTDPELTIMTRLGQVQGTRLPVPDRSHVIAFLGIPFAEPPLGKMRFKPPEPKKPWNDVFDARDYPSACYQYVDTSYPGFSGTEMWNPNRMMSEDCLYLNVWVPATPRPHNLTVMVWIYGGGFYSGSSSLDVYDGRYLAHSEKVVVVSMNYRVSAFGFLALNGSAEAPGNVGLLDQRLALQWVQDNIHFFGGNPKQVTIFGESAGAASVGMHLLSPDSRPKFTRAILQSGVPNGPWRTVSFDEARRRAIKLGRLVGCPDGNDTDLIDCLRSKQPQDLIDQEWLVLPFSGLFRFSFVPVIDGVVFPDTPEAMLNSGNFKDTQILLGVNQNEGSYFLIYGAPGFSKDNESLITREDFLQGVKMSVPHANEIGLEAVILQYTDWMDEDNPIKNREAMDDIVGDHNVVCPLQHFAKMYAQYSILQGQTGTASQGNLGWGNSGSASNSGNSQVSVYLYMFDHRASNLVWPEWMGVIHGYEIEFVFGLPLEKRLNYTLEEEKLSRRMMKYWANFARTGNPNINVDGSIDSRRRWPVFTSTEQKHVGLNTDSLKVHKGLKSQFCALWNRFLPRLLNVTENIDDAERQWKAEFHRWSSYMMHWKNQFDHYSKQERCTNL

B1: Target ii AChE probe (75 nt) (mixed)
DNA: GGTTGACTGTAGCTCTGGCAGACGTAGTGTGAAGGTACCGGGCGGCGACCTAAGGTGTCGTGCGTAAGTTTTTAA
**Q.** Does B1 bind?
**A.** binds
